Laboratory results as given in paper PMC11339918, “Extracellular Domain of IL-10 Receptor Chain-2 (IL-10R2) and Its Arginine-Containing Peptides Are Susceptible Substrates for Human Prostate Kallikrein-2 (KLK2)” (Biochemistry, 2024).
Entries after “also recorded” stand apart in the source; their conditions may differ. Non-standard residues stand in square brackets, D forms with d. No end group written: not given here. *: point of attachment. EDDnp = O=[N+]([O-])c1ccc(NCCN*)c([N+](=O)[O-])c1; 2Abz = Nc1ccccc1C(=O)O

These substances were tested against T1, Recombinant KLK2 (Homo sapiens, UniProt P20151) (assay: Hydrolysis of FRET peptides by recombinant KLK2 (kinetic parameters)). Conditions: 20 mM Tris–HCl, pH 8.0, 1 M sodium citrate.
T1 construct: made in house; host or cells: baculovirus-insect cell line system
Format: biochemical
Excerpt: Obtained from a baculovirus-insect cell line system, purified, and activated as previously reported,[14] MUGB (4-methylumbelliferyl p-guanidino benzoate hydrochloride) was used for the spectrofluorimetric determination of molar concentrations of active KLK2.[15] KLK3 was obtained and assayed as previously reported.[3]
All of the FRET peptides were obtained by solid-phase peptide synthesis. The purity of FRET peptides to 95% or higher was obtained by semipreparative HPLC on a C18 reversed-phase column and used as protease substrates, as previously reported.[5] Details about the purification and quality of the FRET peptides are provided in the Supporting Information. The enzymatic kinetic measurements were all performed with FRET peptides as previously described.[5]
Five series of FRET peptides derived from Abz-KLRSSK-Q-EDDnp were assayed with KLK2 in 20 mM Tris–HCl, pH 8.0, and 1 M sodium citrate. […] The specificity of subsites S3, S2, S1’, and S2’ was explored by the FRET peptide series Abz-XLRSSKQ-EDDnp (for S3), Abz-KXRSSKQ-EDDnp (for S2), Abz-KLRXSKQ-EDDnp (for S1’), and Abz-KLRSXKQ-EDDnp (for S2’). All of them were hydrolyzed only at R–S or R–X peptide bonds, and the kinetic parameters for their hydrolysis by KLK2 are listed in Table 1.

T1 sequence (P20151 25-261): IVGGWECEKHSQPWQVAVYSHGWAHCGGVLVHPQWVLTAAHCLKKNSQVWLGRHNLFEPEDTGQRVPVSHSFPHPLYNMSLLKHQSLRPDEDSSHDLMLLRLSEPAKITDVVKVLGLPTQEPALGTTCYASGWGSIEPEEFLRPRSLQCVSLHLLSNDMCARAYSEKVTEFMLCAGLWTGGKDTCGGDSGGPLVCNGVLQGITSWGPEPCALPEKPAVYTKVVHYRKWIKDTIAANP

Substance	kcat/Km [mM^–1 s^–1]
Abz-KLRSSKQ-EDDnp [parent FRET peptide, cleaved at the R–S peptide bond by KLK2]	1738

Same assay, conditions: FRET peptides derived from the IL-10R2 ectodomain

Substance	hydrolysis by KLK2 (in words)
Abz-LPDRNK-Q-EDDnp [FRET peptide derived from the IL-10R2 ectodomain, ^195LPDRN^200K]	resistant to KLK2; also recorded: no hydrolysis
Abz-LSKYGD-Q-EDDnp [FRET peptide derived from the IL-10R2 ectodomain, ^79LSKYG^84D]	resistant to hydrolysis; also recorded: no hydrolysis

Same assay, conditions: Table 3, FRET peptides derived from the IL-10R2 ectodomain

Substance	Km [µM]	kcat [s^–1]	kcat/Km [mM s–1]
Abz-SYRIFQ-Q-EDDnp [FRET peptide derived from the IL-10R2 ectodomain, ^58SYRI^62F]	0.95	7.3	7684
Abz-TLRVRAE-Q-EDDnp [FRET peptide derived from the IL-10R2 ectodomain, ^86TLRVRA^92E]	1.34	2.47	1843

Same assay, conditions: pH 8.0, 20 mM Tris–HCl, 1 M sodium citrate, 37 °C, KLK2 1.6 nM; three enzymatic reactions, standard errors 5% or less

Substance	Km [µM]	kcat [s^–1]	kcat/Km [s^–1 mM^–1]
Abz-KLRSSKQ-EDDnp [parent FRET peptide, cleaved at the R–S peptide bond by KLK2]	6.5	11.3	1738
Abz-KLRSXKQ-EDDnp, X = A: FRET peptide, S2’ series, X = A ([2Abz]KLRSAKQ-EDDnp)	3.8	12.2	3211
Abz-KLRSXKQ-EDDnp, X = E: FRET peptide, S2’ series, X = E ([2Abz]KLRSEKQ-EDDnp)	8	7.1	888
Abz-KLRSXKQ-EDDnp, X = F: FRET peptide, S2’ series, X = F ([2Abz]KLRSFKQ-EDDnp)	2.4	12.4	5167
Abz-KLRSXKQ-EDDnp, X = G: FRET peptide, S2’ series, X = G ([2Abz]KLRSGKQ-EDDnp)	4.5	3.5	778
Abz-KLRSXKQ-EDDnp, X = H: FRET peptide, S2’ series, X = H (N-terminal Abz, C-terminal EDDnp; X = H)	5.9	4.4	
Abz-KLRSXKQ-EDDnp, X = I: FRET peptide, S2’ series, X = I ([2Abz]KLRSIKQ-EDDnp)	2.8	4.4	1571
Abz-KLRSXKQ-EDDnp, X = L: FRET peptide, S2’ series, X = L ([2Abz]KLRSLKQ-EDDnp)	2.8	8.5	3036
Abz-KLRSXKQ-EDDnp, X = N: FRET peptide, S2’ series, X = N ([2Abz]KLRSNKQ-EDDnp)	8.8	4.9	557
Abz-KLRSXKQ-EDDnp, X = Q: FRET peptide, S2’ series, X = Q ([2Abz]KLRSQKQ-EDDnp)	5.2	6.5	1250
Abz-KLRSXKQ-EDDnp, X = R: FRET peptide, S2’ series, X = R ([2Abz]KLRSRKQ-EDDnp)	3.6	3.2	888
Abz-KLRSXKQ-EDDnp, X = V: FRET peptide, S2’ series, X = V ([2Abz]KLRSVKQ-EDDnp)	4.2	15.3	3643
Abz-KLRXSKQ-EDDnp, X = E: FRET peptide, S1’ series, X = E ([2Abz]KLRESKQ-EDDnp)	6.6	10.3	1561
Abz-KLRXSKQ-EDDnp, X = F: FRET peptide, S1’ series, X = F ([2Abz]KLRFSKQ-EDDnp)	1.2	3.5	2917
Abz-KLRXSKQ-EDDnp, X = G: FRET peptide, S1’ series, X = G ([2Abz]KLRGSKQ-EDDnp)	7.3	19.9	
Abz-KLRXSKQ-EDDnp, X = H: FRET peptide, S1’ series, X = H (N-terminal Abz, C-terminal EDDnp; X = H)	4.3	8.0	1860
Abz-KLRXSKQ-EDDnp, X = I: FRET peptide, S1’ series, X = I ([2Abz]KLRISKQ-EDDnp)	1.8	7.2	4000
Abz-KLRXSKQ-EDDnp, X = L: FRET peptide, S1’ series, X = L ([2Abz]KLRLSKQ-EDDnp)	3.3	6.7	2030
Abz-KLRXSKQ-EDDnp, X = N: FRET peptide, S1’ series, X = N ([2Abz]KLRNSKQ-EDDnp)	8.6	14.8	1733

Substance	Km [µM]	kcat [s^–1]	kcat/Km [s^–1 mM^–1]
Abz-KLRXSKQ-EDDnp, X = Q: FRET peptide, S1’ series, X = Q ([2Abz]KLRQSKQ-EDDnp)	6.1	8.5	1393
Abz-KLRXSKQ-EDDnp, X = R: FRET peptide, S1’ series, X = R ([2Abz]KLRRSKQ-EDDnp)	5.4	8.2	1519
Abz-KLRXSKQ-EDDnp, X = V: FRET peptide, S1’ series, X = V ([2Abz]KLRVSKQ-EDDnp)	2.2	8.1	3682
Abz-KXRSSKQ-EDDnp, X = A: FRET peptide, S2 series, X = A [Abz-KXRSSKQ-EDDnp, X = A] ([2Abz]KARSSKQ-EDDnp)	4.8	2.2	458
Abz-KXRSSKQ-EDDnp, X = E: FRET peptide, S2 series, X = E [Abz-KXRSSKQ-EDDnp, X = E] ([2Abz]KERSSKQ-EDDnp)	9.1	1.0	110
Abz-KXRSSKQ-EDDnp, X = F: FRET peptide, S2 series, X = F ([2Abz]KFRSSKQ-EDDnp)	1.6	4.1	2563
Abz-KXRSSKQ-EDDnp, X = G: FRET peptide, S2 series, X = G ([2Abz]KGRSSKQ-EDDnp)	12.4	1.0	81
Abz-KXRSSKQ-EDDnp, X = H: FRET peptide, S2 series, X = H (N-terminal Abz, C-terminal EDDnp; X = H)	9.6	4.7	490
Abz-KXRSSKQ-EDDnp, X = I: FRET peptide, S2 series, X = I [Abz-KXRSSKQ-EDDnp, X = I] (Abz-KIRSSKQ-EDDnp)	4.5	4.7	1044
Abz-KXRSSKQ-EDDnp, X = K: FRET peptide, S2 series, X = K (Abz-KKRSSKQ-EDDnp)	7.2	3.0	417
Abz-KXRSSKQ-EDDnp, X = N: FRET peptide, S2 series, X = N (Abz-KNRSSKQ-EDDnp)	10.1	3.3	327
Abz-KXRSSKQ-EDDnp, X = Q: FRET peptide, S2 series, X = Q [Abz-KXRSSKQ-EDDnp, X = Q] (Abz-KQRSSKQ-EDDnp)	8.3	6.4	771
Abz-KXRSSKQ-EDDnp, X = R: FRET peptide, S2 series, X = R (Abz-KRRSSKQ-EDDnp)	5.2	8.7	1673
Abz-KXRSSKQ-EDDnp, X = S: FRET peptide, S2 series, X = S (Abz-KSRSSKQ-EDDnp)	9.1	1.1	121
Abz-KXRSSKQ-EDDnp, X = T: FRET peptide, S2 series, X = T (Abz-KTRSSKQ-EDDnp)	10.5	3.6	343
Abz-KXRSSKQ-EDDnp, X = V: FRET peptide, S2 series, X = V (Abz-KVRSSKQ-EDDnp)	8.5	9.9	1165
Abz-KXRSSKQ-EDDnp, X = Y: FRET peptide, S2 series, X = Y [Abz-KXRSSKQ-EDDnp, X = Y] (Abz-KYRSSKQ-EDDnp)	5.6	12.8	2304
Abz-XLRSSKQ-EDDnp, X = E: FRET peptide, S3 series, X = E (Abz-ELRSSKQ-EDDnp)	7.6	7.4	974
Abz-XLRSSKQ-EDDnp, X = F: FRET peptide, S3 series, X = F [Abz-XLRSSKQ-EDDnp, X = F] (Abz-FLRSSKQ-EDDnp)	6.6	9.6	1455
